Laboratory results from patent US10100120B2, “Antibody which specifically binds to human CRTH2” (KYOWA HAKKO KIRIN CO., LTD, priority 2015, dated 2018).
Residue numbers refer to the chain shown, from its start.

Tests used:
[1] = target: T1, mutated human CRTH2 with amino acid substitution (Homo sapiens, UniProt Q9Y5Y4, R195A); experiment: Epitope analysis using CHO-S cells which express mutated human CRTH2 with amino acid substitution; format: binding; settings: mutant R195A; antibody 10 μg/mL; relative to wild-type = 100%
T1 construct: inserting genes encoding various mutants with amino acid substitution obtained by deleting termination codons; expressed in transfected cells; host or cells: CHO-S cells (Lifetechnologies), transient (phmAG1-MNLinker vector)
T1 sequence (Q9Y5Y4 1-395 R195A): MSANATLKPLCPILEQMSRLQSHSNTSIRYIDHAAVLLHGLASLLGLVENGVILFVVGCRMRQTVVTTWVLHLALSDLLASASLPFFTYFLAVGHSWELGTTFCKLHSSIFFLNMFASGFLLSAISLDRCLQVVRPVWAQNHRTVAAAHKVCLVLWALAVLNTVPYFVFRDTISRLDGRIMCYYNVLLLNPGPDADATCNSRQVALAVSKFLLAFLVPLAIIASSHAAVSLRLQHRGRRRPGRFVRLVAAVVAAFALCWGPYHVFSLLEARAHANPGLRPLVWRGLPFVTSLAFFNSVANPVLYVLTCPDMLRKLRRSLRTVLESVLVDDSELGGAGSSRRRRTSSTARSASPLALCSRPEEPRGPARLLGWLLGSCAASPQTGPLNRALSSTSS
Experimental: (§1) A mutant with amino acid substitution expression vector obtained by partially substituting amino acid residues in an extracellular region with other amino acid residues among the amino acid sequences of human CRTH2 was prepared. Specifically, mutant with amino acid substitution expression vectors obtained by substitution of S2A; N4A; T6A and L7A; K8A, P9A, and L10A; P12A, L14A, and EISA; Q16E, R19H, and Q21R; H23A, S24A, and N25A; T26A, S27A, and I28A; D171A, T172A, and I173A; S174A, R175A, and L176A; D177A, G178A, and R179A; 1180A and M181A; Y183A, Y184A, and N185A; L187A, L188A, and L189A; N190A; P191A; G192A; P193A; D194A; R195A; D196A, and T198A; N275A, G277A, and L278A; P276A; P279A and L281A; P280A; or V282A, R283A, and R284A in the amino acid sequences represented by SEQ ID NO: 2 were respectively prepared. It should be noted that the above symbols in the amino acid substitution indicate [single letter code of an amino acid residue before substitution] [substitution position counting from the N terminal] [single letter code of the amino acid reside after substitution].
(§2) Azami-Green tag was added to the intercellular C terminal region by inserting genes encoding various mutants with amino acid substitution obtained by deleting termination codons to the restriction enzyme sites of BamHI and HindIII using phmAG1-MNLinker (MBL) as expression vectors.
(§3) The above-described vectors expressing mutants with amino acid substitution were prepared using 1) a method of entirely synthesizing gene sequences encoding mutants with amino acid substitution and inserting the gene sequences into a vector or 2) a method of performing site-specific mutation from a vector into which DNA which encodes the amino acid sequences of wild-type human CRTH2 represented by SEQ ID NO: 1 was inserted.
(§4) CHO-S cells (Lifetechnologies) were used for preparing mutated human CRTH2 with amino acid substitution expressing cell lines. Free style CHO expression medium (Invitrogen) containing 8 mM L-Glutamine (Invitrogen) was used for subculturing cells and the cells were cultured by shaking under the conditions of 37° C. in the presence of 5% CO2.
(§5) 25 μg of the mutated human CRTH2 with amino acid substitution expression vector prepared in (1) described above was dissolved in 400 μL of Opti-Pro SFM (Invitrogen) and 25 μL of a Freestyle MAX Reagent (Invitrogen) was dissolved in 400 μL of Opti-Pro SFM and each of them were allowed to stand at room temperature for 5 minutes. The two liquids were mixed with each other and allowed to stand at room temperature for 15 minutes. The mixed solution was added to the CHO-S culture solution and the cells were cultured for 24 hours, thereby obtaining cell lines which express mutated human CRTH2 with amino acid substitution.
(§6) The CHO-S cells which express mutated human CRTH2 with amino acid substitution established in (2) were washed with SM, seeded in a 96-well plate such that one well has 2×10^5 cells, and centrifuged at 1700 rpm for 2 minutes. After the supernatant was removed, chLym2, LV0HV1, the anti-human CRTH2 antibody hu19A2 v52, hu8B1 v1, ch3C12, or ch31A5 prepared in Example 9, or a commercially available anti-human CRTH2 antibody BM16 (Santa Cruz) prepared to have a concentration of 10 μg/mL using SM was added thereto to cause a reaction at 4° C. for 1 hour.
(§7) After the cells were washed, goat anti-Human IgG Alexa 647 (Molecular Probes) diluted with SM was added to wells to which chLym2, LV0HV1, hu19A2 v52, hu8B1 v1, ch3C12, or ch31A5 was added and goat anti-Rat IgG Alexa 647 (Molecular Probes) diluted with SM was added to wells to which BM16 was added at a final concentration of 10 μg/mL to cause a reaction at 4° C. for 1 hour.
(§8) After the reaction, the cells were washed and suspended with SM, and the fluorescent intensity was analyzed by flow cytometry (BD Biosciences, FACS CantoII). […]

[2] = target: T2, mutated human CRTH2 with amino acid substitution (Homo sapiens, UniProt Q9Y5Y4, I180A/M181A); experiment: as above; format: binding; settings: mutant I180A and M181A; antibody 10 μg/mL; relative to wild-type = 100%
T2 construct: inserting genes encoding various mutants with amino acid substitution obtained by deleting termination codons; expressed in transfected cells; host or cells: CHO-S cells (Lifetechnologies), transient (phmAG1-MNLinker vector)
T2 sequence (Q9Y5Y4 1-395 I180A/M181A): T1 sequence (Q9Y5Y4 1-395 R195A) with I180A, M181A, A195R
Experimental: as §1, §2, §3, §4, §5, §6, §7, §8

B1: LV0HV1: humanized Lym2 antibody, VL LV0 (SEQ ID NO: 33), VH HV1 (SEQ ID NO: 51) (antibody, V domains shown)
VH: EVQLVESGGGVVQPGRSLRLSCAASGFTFSNYYMAWVRQAPGKGLEWVATISYDGSSTYYRDSVKGRFTISRDNAKNSLYLQMNSLRAEDTATYYCARHRGYYYSGAGYFDYWGQGTMVTVSS
VL: DIVMTQTPLSLPVTPGESASISCRSSQSLEYSDGYTYLEWYLQKPGQSPQVLIYGVSNRFSGVPDRFSGSGSGTDFTLKISRVEAEDVGVYYCFQATHDPLTFGQGTKLEIK
Q: Which “reactivity against cells expressing mutated human CRTH2” value [1] does the source give for B1 here?
A: lost

Q: What about the “reactivity against cells expressing mutated human CRTH2” value [2] of the same molecule?
A: lost
